Assay results from patent publication US20090068207A1, “Compositions Containing Beta 2-Glycoprotein I-Derived Peptides for the Prevention and/or Treatment of Vascular Disease” (Vascular Biogenics Ltd., priority 2005, published 2009).

Tests used:
Type in all cases: in vivo
LDL-RD mice [1] = assay: Aortic sinus lesion area after oral administration, Western diet; details: for Aortic sinus lesion (μm^2): End, mean ± S.E
Protocol: Oral Tolerance: For comparison, oral tolerance to plaque-associated molecules was induced by feeding […] of antigen every other day (for a detailed account of induction of oral tolerance, see U.S. patent application Ser. No. 09/806,400 to Shoenfeld et al filed Sep. 30, 1999), in a similar regimen to the nasal tolerance. LDL-RD mice were fed by a nasogastric tube, five doses (every other day) of human or bovine β2GPI in PBS in two different concentrations (500 and 50 μg/dose).
Oral tolerance to β2GPI-derived peptides, alone or in combination was induced by feeding 100 μg of the peptides (prepared in PBS, 0.2 ml), as detailed hereinabove, every other day for a total of 5 doses of 100 μg. One day following the last feeding, all mice were switched from chow-diet to an atherogenic “Western” diet and sacrificed five weeks later.
(§1) Assessment of Atherosclerosis: Quantification of atherosclerotic fatty streak lesions was done by calculating the lesion size in the aortic sinus as previously described (16) and by calculating the lesion size in the aorta. Briefly, after perfusion with saline Tris EDTA, the heart and the aorta were removed from the animals and the peripheral fat cleaned carefully. The upper section of the heart was embedded in OCT medium (10.24% w/w polyvinyl alcohol; 4.26% w/w polyethylene glycol; 85.50% w/w nonreactive ingredients) and frozen. Every other section (10 μm thick) throughout the aortic sinus (400 μm) was taken for analysis. The distal portion of the aortic sinus was recognized by the three valve cusps that are the junctions of the aorta to the heart. […] Lesion areas per section were scored on a grid (17) by an observer counting unidentified, numbered specimens. The aorta was dissected from the heart and surrounding adventitious tissue was removed. Fixation of the aorta and Sudan staining of the vessels were performed as previously described (21).
LDL-receptor deficient (LDL-RD; LDLR −/−) mice created on a C57BL/6 background develop accelerated atherosclerosis when fed a high cholesterol diet, but not when fed a regular chow diet. In order to determine whether mucosal administration of the plaque antigen β2GPI could suppress atherogenic processes, LDL-RD mice were fed low, oral tolerance inducing doses of human and bovine β2GPI, and the assessed for alterations in response to diet.

LDL-RD mice [2] = assay: Aortic sinus lesion area after nasal tolerance induction, Western diet; details: End, mean ± S.E
Protocol: Nasal Tolerance: Nasal tolerance was induced by intranasal administration of oxidized LDL, β2GPI, β2GPI-derived peptides or HSP65, in a total volume of 10 μl PBS. Intranasal administration was performed on mildly sedated mice (12-16 weeks old), each mouse receiving 3 doses of antigen per dose, in the indicated concentrations, every other day. Atherogenesis was induced by 5 weeks of a Western diet initiated on the day following the last intranasal administration, or assessed (in Apo E KO mice) after 8 weeks on a chow diet. Controls received equal amounts of BSA and/or PBS, as indicated, in an identical regimen. Plasma was obtained for assessment of cholesterol and triglyceride levels from all mice, and the mice were sacrificed for evaluation of atherosclerosis, as described hereinbelow, after 5 weeks Western diet, or (in Apo E KO mice) after 8 weeks on a chow diet.
Assessment of Atherosclerosis: Quantification of atherosclerotic fatty streak lesions was done by calculating the lesion size in the aortic sinus as previously described (16) and by calculating the lesion size in the aorta. Briefly, after perfusion with saline Tris EDTA, the heart and the aorta were removed from the animals and the peripheral fat cleaned carefully. The upper section of the heart was embedded in OCT medium (10.24% w/w polyvinyl alcohol; 4.26% w/w polyethylene glycol; 85.50% w/w nonreactive ingredients) and frozen. Every other section (10 μm thick) throughout the aortic sinus (400 μm) was taken for analysis. The distal portion of the aortic sinus was recognized by the three valve cusps that are the junctions of the aorta to the heart. Sections were evaluated for fatty streak lesions after processing and staining with oil-red O, according to Paigen et al (Atherosclerosis, 1987; 68:231-40). Lesion areas per section were scored on a grid (17) by an observer counting unidentified, numbered specimens. The aorta was dissected from the heart and surrounding adventitious tissue was removed. Fixation of the aorta and Sudan staining of the vessels were performed as previously described (21).
Mice were bled prior to feeding (Time 0) and at the conclusion of the experiment (End) for determination of lipid profile. Atherosclerosis was assessed in heart and aorta as described above, 8 weeks after the last feeding. Mice were weighed every 2 weeks during the experiment. All mice were fed water ad libitum and a normal chow-diet containing 4.5% fat by weight (0.02% cholesterol), up to the final antigen exposure, and then a “Western” diet until sacrifice.
Thus, nasal exposure to a low dose and an exceedingly low dose of recombinant human HSP 65 were compared for their effectiveness in suppressing atherogenesis in LDL-RD mice. 58 male 12-16 week old LDL-RD mice were divided into 4 groups.

ApoE-KO mice = assay: Aortic sinus lesion area after oral administration in ApoE-KO mice; details: End t = 16 wks; oral 50 μg/mouse; ApoE-KO mice; mean ± S.E
Source text: as §1
In order to determine the protective effect of mucosal administration of β2GPI on development of atherosclerosis, adult ApoE-KO mice were treated with oral administration of human β2GPI. 20 week-old male ApoE-KO mice, having advanced atherosclerotic lesions were treated monthly with human β2GPI (50 μg/dose) or PBS (0.2 ml) in 5 oral administrations (by gavage, as described hereinabove) given every other day, for four months. Lesion area calculated from cryosections of the aortic sinus were compared between control untreated 20 week old mice, and mice following 16 weeks oral administration of β2GPI or PBS.
10-11 week-old male ApoE-KO mice, having early atherosclerotic lesions, were treated with 5 oral administrations (by gavage, as described hereinabove) given every other day of human β2GPI peptide S-4 (SEQ ID NO: 14) or human β2GPI (50 μg/dose) or PBS (0.2 ml). Lesion areas calculated from cryosections of the aortic sinus were compared between control untreated, human β2GPI treated and S-4 human β2GPI-derived peptide treated mice at 8 weeks following the last oral administration of the antigens, or of PBS.

B1: B-β2 GPI: bovine beta2-glycoprotein I purified from serum (protein, UniProt P17690 20-345, looked up)
Beta-2-glycoprotein 1: GRTCPKPDELPFSTVVPLKRTYEPGEQIVFSCQPGYVSRGGIRRFTCPLTGLWPINTLKCMPRVCPFAGILENGTVRYTTFEYPNTISFSCHTGFYLKGASSAKCTEEGKWSPDLPVCAPITCPPPPIPKFASLSVYKPLAGNNSFYGSKAVFKCLPHHAMFGNDTVTCTEHGNWTQLPECREVRCPFPSRPDNGFVNHPANPVLYYKDTATFGCHETYSLDGPEEVECSKFGNWSAQPSCKASCKLSIKRATVIYEGERVAIQNKFKNGMLHGQKVSFFCKHKEKKCSYTEDAQCIDGTIEIPKCFKEHSSLAFWKTDASDVKPC
Aortic sinus lesion (μm^2) (LDL-RD mice [1]; oral 50 μg): 27422 ± 3007 μm^2 | Aortic sinus lesion (μm^2) (LDL-RD mice [1]; oral 500 μg): 20781 ± 2290 μm^2 | reduction of atherosclerosis as compared with BSA-fed controls (LDL-RD mice [1]; oral 50 μg/dose): 57% | reduction of atherosclerosis as compared with BSA-fed controls (LDL-RD mice [1]; oral 500 μg/dose): 43%

B2: HSP65: recombinant human HSP 65 according to Example 2 and Table 2 (protein, UniProt P10809 27-573, looked up)
60 kDa heat shock protein, …: AKDVKFGADARALMLQGVDLLADAVAVTMGPKGRTVIIEQSWGSPKVTKDGVTVAKSIDLKDKYKNIGAKLVQDVANNTNEEAGDGTTTATVLARSIAKEGFEKISKGANPVEIRRGVMLAVDAVIAELKKQSKPVTTPEEIAQVATISANGDKEIGNIISDAMKKVGRKGVITVKDGKTLNDELEIIEGMKFDRGYISPYFINTSKGQKCEFQDAYVLLSEKKISSIQSIVPALEIANAHRKPLVIIAEDVDGEALSTLVLNRLKVGLQVVAVKAPGFGDNRKNQLKDMAIATGGAVFGEEGLTLNLEDVQPHDLGKVGEVIVTKDDAMLLKGKGDKAQIEKRIQEIIEQLDVTTSEYEKEKLNERLAKLSDGVAVLKVGGTSDVEVNEKKDRVTDALNATRAAVEEGIVLGGGCALLRCIPALDSLTPANEDQKIGIEIIKRTLKIPAMTIAKNAGVEGSLIVEKIMQSSSEVGYDAMAGDFVNMVEKGIIDPTKVVRTALLDAAGVASLLTTAEVVVTEIPKEEKDPGMGAMGGMGGGMGGGMF
Aortic sinus lesion (μm^2) (LDL-RD mice [2]; intranasal 1 μg/mouse): 17109 ± 2053 μm^2 | Aortic sinus lesion (μm^2) (LDL-RD mice [2]; intranasal 10 μg/mouse): 22292 ± 2691 μm^2

B3: B-β2GPI: head of Table 5; text and footnote say human β2GPI, 50 μg/mouse orally (protein, UniProt P02749 20-345, looked up)
Beta-2-glycoprotein 1: GRTCPKPDDLPFSTVVPLKTFYEPGEEITYSCKPGYVSRGGMRKFICPLTGLWPINTLKCTPRVCPFAGILENGAVRYTTFEYPNTISFSCNTGFYLNGADSAKCTEEGKWSPELPVCAPIICPPPSIPTFATLRVYKPSAGNNSLYRDTAVFECLPQHAMFGNDTITCTTHGNWTKLPECREVKCPFPSRPDNGFVNYPAKPTLYYKDKATFGCHDGYSLDGPEEIECTKLGNWSAMPSCKASCKVPVKKATVVYQGERVKIQEKFKNGMLHGDKVSFFCKNKEKKCSYTEDAQCIDGTIEVPKCFKEHSSLAFWKTDASDVKPC
Aortic sinus lesion (μm^2) (ApoE-KO mice): 221042 ± 14472 μm^2
